Laboratory results as given in patent publication US20210355204A1 (XOMA TECHNOLOGY, published 2021).

T1: TGFβ2 (human, UniProt P61812 303-414)
T1 sequence (looked up): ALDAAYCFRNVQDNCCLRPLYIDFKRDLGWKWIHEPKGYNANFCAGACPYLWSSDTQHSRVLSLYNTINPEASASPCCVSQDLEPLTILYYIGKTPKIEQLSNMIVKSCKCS

T2: TGFβ3 (human, UniProt P10600 301-412)
T2 sequence (looked up): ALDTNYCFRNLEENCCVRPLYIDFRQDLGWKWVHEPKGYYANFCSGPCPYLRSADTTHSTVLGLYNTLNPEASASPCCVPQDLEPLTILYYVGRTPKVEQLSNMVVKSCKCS


Assays:
TGFβ2 [1] = molecular target: T1, TGFβ2; experiment: cell-based or functional assay
TGFβ1 [2] = molecular target: T3, TGFβ1 (human, UniProt P01137 279-390); experiment: cell-based or functional assay
TGFβ3 [3] = molecular target: T2, TGFβ3; experiment: cell-based or functional assay
TGFβ2 [4] = molecular target: T1, TGFβ2; experiment: SPR (Biacore 2000), TGFβ immobilised on CM1 chip, antibody injected
Description: (§1) The chip surface was activated with four minute injections at 20 μL/minute of a freshly mixed 1:1 solution of 0.1M N-Hydroxysuccinimide (NHS) and 0.4M 1-Ethyl-3-(3-dimethylaminopropyl) carbodiimide hydrochloride (EDC). Following the activation injection a 0.1 ug/mL solution of TGFβ in acetate pH 4.0 was injected at 20 μL/minute for several minutes. […] Injections of TGFβ were performed as a series of 1 to 2 minute injections looking at immobilized level between each injection. The target immobilized density of each TGFβ ligand was 30 RU. After the TGFβ immobilization injections, 4 minutes of 1 M Ethanolamine hydrochloride-NaOH pH 8.5 was injected to block the surface.
(§2) Each of the antibodies was diluted in running buffer to 5 μg/mL (33.3 nM) and 4 subsequent five-fold dilutions were prepared setting up concentrations of 33.33 nM, 6.67 nM, 1.33 nM, 267 pM, and 53 pM for each. These were then injected using the Kinject setting for four minutes at 50 μL/minute, with a 900 second dissociation time. Regeneration was then performed with a 12 μL (14.4 second) injection of 100 mM HCl at 50 μL/minute followed by an 18 second buffer injection. Injections were across all flow cells simultaneously and samples were run injected in quadruplicates with blank injections bracketing each set of descending concentration injection groups for each antibody. This means that before the same sample was injected a second time all other concentrations of all antibodies were injected once.
(§3) The data were analyzed using Scrubber2 (BioLogic Software, Campbell Australia) and were double referenced by subtracting both the blank flow cell data and the averaged bracketing blank injections.

TGFβ1 [5] = molecular target: T3, TGFβ1; experiment: as above
Description: as §1, §2, §3

TGFβ3 [6] = molecular target: T2, TGFβ3; experiment: as above
Description: as §1, §2, §3

TGFβ2 [7] = molecular target: T1, TGFβ2; experiment: SPR competition: 4 nM TGFβ pre-mixed with 133 nM of the row's molecule, injected over immobilised XPA.42.089 (competitor)
Description: (§4) A CM5 sensor chip (GE Healthcare) was used on a BIACORE 2000 system. The chip was preconditioned with four 30 second injections at 50 uL/minute flow rate of 100 mM HCl prior to immobilization. Running buffer for immobilization was a HEPES Buffered Saline (HBS-EP+) with 10 mM Hepes, 150 mM Sodium Chloride, 3 mM EDTA, and 0.05% Polysorbate 20. The chip surface was activated with a seven minute injection at 10 uL/minute of a freshly mixed 1:1 solution of 0.1 M N-Hydroxysuccinimide (NHS) and 0.4 M 1-Ethyl-3-(3-dimethylaminopropyl) carbodiimide hydrochloride (EDC). […] Injections were monitored and performed sequentially to establish immobilization levels very close to 300 RU. Eight minutes of 1 M Ethanolamine hydrochloride-NaOH pH 8.5 was injected to block the surface. The NHS, EDC, and Ethanolamine used were from the BIACORE Amine Coupling Kit. Fc1 was the activated and deactivated control.
(§5) Competition assays were performed using a running buffer of thoroughly degassed form of the HBS-EP+ buffer above supplemented with 1 mg/mL BSA. […] The TGFβ-RIIb-Fc recombinant receptor (R&D Systems) also was included as a competitor. Samples were allowed to come to equilibrium for 40 minutes at room temperature before the BIACORE run was started. Equilibrated samples were then injected at 30 uL/minute for three minutes over all of the flow cells. Regeneration was performed every cycle with one injection of 50 mM NaOH at 50 uL/minute for 6 seconds (5 μLs) and followed by a thirty second buffer injection. Samples were run in duplicates and analyzed for level of TGFβ bound at the end of the three minutes.

TGFβ1 [8] = molecular target: T3, TGFβ1; experiment: as above
Description: as §4, §5

TGFβ3 [9] = molecular target: T2, TGFβ3; experiment: as above
Description: as §4, §5

TGFβ2 [10] = molecular target: T1, TGFβ2; experiment: SPR (Biacore 2000), antibody immobilised on CM4 chip, TGFβ injected
Description: (§6) A CM4 sensor chip (GE Healthcare) was used on a BIACORE 2000 system (GE Healthcare). The chip was preconditioned with two 30 second injections each at 50 μL/minute flow rate of 100 mM HCl, Glycine pH 2.0, 50 mM NaOH, and running buffer prior to immobilization. Running buffer for immobilization was a HEPES Buffered Saline (HBS-EP+) with 10 mM Hepes, 150 mM Sodium Chloride, 3 mM EDTA, and 0.05% Polysorbate 20 (Teknova). The chip surface was activated with a seven minute injection at 10 μL/minute of a freshly mixed 1:1 solution of 0.1 M N-Hydroxysuccinimide (NHS) and 0.4 M 1-Ethyl-3-(3-dimethylaminopropyl) carbodiimide hydrochloride (EDC). Following the activation injection, 1 ug/mL anti-TGFβ antibody in acetate pH 4.5 was injected at 10 μL/minute for one minute, with injections targeting 120 RU. 8 minutes of 1M Ethanolamine hydrochloride-NaOH pH 8.5 was injected to block the surface. The NHS, EDC, and Ethanolamine used were from the BIACORE Amine Coupling Kit.
(§7) Kinetic Analysis was performed using a running buffer of thoroughly degassed form of the HBS-EP+ buffer above supplemented with 1 mg/mL BSA (Sigma Aldrich, St. Louis Mo.). TGFβ sample injections were performed at 50 μL/minute for four minutes with a 900 second dissociation time. […] Regeneration was then performed with three injections of 30 seconds each of 100 mM HCl in 3 M MgCl₂ followed by a final 30 second blank buffer injection.
(§8) The data were analyzed using Scrubber2 (BioLogic Software, Campbell Australia) and was double referenced by subtracting both the blank flow cell data and the averaged bracketing blank injections. […] TGFβ proteins were injected at the same concentrations as described above at 30 μL/minute.

TGFβ1 [11] = molecular target: T3, TGFβ1; experiment: as above
Description: as §6, §7, §8

TGFβ3 [12] = molecular target: T2, TGFβ3; experiment: as above
Description: as §6, §7, §8

TGFβ2 [13] = molecular target: T1, TGFβ2; experiment: SPR competition: 4 nM TGFβ pre-mixed with 133 nM of the row's molecule, injected over immobilised XPA.42.089 (self competition)
Description: as §4, §5

TGFβ1 [14] = molecular target: T3, TGFβ1; experiment: as above
Description: as §4, §5

TGFβ3 [15] = molecular target: T2, TGFβ3; experiment: as above
Description: as §4, §5

TGFβ2 [16] = molecular target: T1, TGFβ2; experiment: SPR: 4 nM TGFβ without competitor injected over immobilised XPA.42.089 (about 300 RU)
Description: as §4, §5

TGFβ1 [17] = molecular target: T3, TGFβ1; experiment: as above
Description: as §4, §5

TGFβ3 [18] = molecular target: T2, TGFβ3; experiment: as above
Description: as §4, §5

TGFβ2 [19] = molecular target: T1, TGFβ2; experiment: SPR
TGFβ1 [20] = molecular target: T3, TGFβ1; experiment: SPR
TGFβ3 [21] = molecular target: T2, TGFβ3; experiment: SPR

Binder	IL-11 Release Assay - IC50 (A549 cells) (TGFβ2 [1]) [ng/mL]	IL-11 Release Assay - IC50 (A549 cells) (TGFβ1 [2]) [ng/mL]	Kd (TGFβ2 [4]) [nM]	koff (TGFβ2 [4]) [s⁻¹]	kon (TGFβ2 [4]) [M⁻¹ s⁻¹]	Kd (TGFβ1 [5]) [nM]	koff (TGFβ1 [5]) [s⁻¹]	kon (TGFβ1 [5]) [M⁻¹ s⁻¹]	Kd (TGFβ3 [6]) [nM]	koff (TGFβ3 [6]) [s⁻¹]	kon (TGFβ3 [6]) [M⁻¹ s⁻¹]	Kd (TGFβ2 [10]) [nM]	koff (TGFβ2 [10]) [s⁻¹]	kon (TGFβ2 [10]) [M⁻¹ s⁻¹]	Kd (TGFβ1 [11]) [pM]	koff (TGFβ1 [11]) [s⁻¹]	kon (TGFβ1 [11]) [M⁻¹ s⁻¹]	Kd (TGFβ3 [12]) [nM]	koff (TGFβ3 [12]) [s⁻¹]	kon (TGFβ3 [12]) [M⁻¹ s⁻¹]	further results
XPA.42.068 (antibody, V domains shown) VH: not shown VL: SSELTQPPSVSVAPGEKARITCGGNNIGRKSVHWYQQRPGQAPVVVLYYDRVRPSGIPERFSGSNSGNTATLTITRVEAGDEADYFCQVWDNTSEHVVFGGGTQLTVLG	110	220	0.109	0.000798	7.3e+06	0.313	0.0017	5.44e+06	1.3	0.00696	5.45e+06	0.051	0.000535	1.04e+07	59	0.000905	1.53e+07	0.455	0.00384	8.45e+06	IL-11 Release Assay - IC50 (A549 cells) (TGFβ3 [3]): 1800 ng/mL; average RU of TGFβ binding (TGFβ2 [7]): 5.18 RU; average RU of TGFβ binding (TGFβ1 [8]): 10.8 RU; average RU of TGFβ binding (TGFβ3 [9]): 7.32 RU
XPA.42.089 (antibody, IgG2, V domains shown) VH: QVQLVQSGAEVKKPGSSVKVSCKASGGTFSSYAISWVRQAPGQGLEWMGGIIPIFGTANYAQKFQGRVTITADESTSTAYMELSSLRSEDTAVYYCARGLWEVRALPSVYWGQGTLVTVSS VL: SYELTQPPSVSVAPGQTARITCGANDIGSKSVHWYQQKAGQAPVLVVSEDIIRPSGIPERISGSNSGNTATLTISRVEAGDEADYYCQVWDRDSDQYVFGTGTKVTVLG	58	37	0.29	0.00139	4.8e+06	0.177	0.00106	5.98e+06	> 17	0.057	3.4e+06	0.025	0.000414	1.62e+07	3.8	0.000167	4.4e+07	1.4	0.0109	7.7e+06	average RU of TGFβ binding (TGFβ2 [13]): 0.363 RU; average RU of TGFβ binding (TGFβ1 [14]): 1.7 RU; average RU of TGFβ binding (TGFβ3 [15]): 9.77 RU; average RU of TGFβ binding (TGFβ2 [16]): 61 RU; average RU of TGFβ binding (TGFβ1 [17]): 63.9 RU; average RU of TGFβ binding (TGFβ3 [18]): 23.6 RU
XPA.42.681 (antibody, IgG2, V domains shown) VH: not shown VL: SYVLTQPPSVSVAPGKTARITCGGNNIGFRSVHWYQQKSGQAPVLVIYFDRARPSGIPERFSASNSENTATLTIRRVEAGDEADYYCQVWDSDSDDLVFGGGTQLTVLG	1	0.4	0.031	0.000394	1.28e+07	0.032	0.000363	1.14e+07	0.054	0.000665	1.23e+07	0.0029	4.99e-05	1.71e+07	1.7	7.2e-05	4.25e+07	0.0057	7.5e-05	1.3e+07	IL-11 Release Assay - IC50 (A549 cells) (TGFβ3 [3]): 0.8 ng/mL
TGFβ-RI (recombinant form) (receptor, UniProt P36897 34-126, looked up, also called TGFβ receptor type 1 protein; TGFβ-R1) LQCFCHLCTKDNFTCVTDGLCFVSVTETTDKVIHNSMCIAEIDLIPRDRPFVCAPSSKTGSVTTTYCCNQDHCNKIELPTTVKSSPGLGPVEL	–	–	–	–	–	–	–	–	–	–	–	–	–	–	–	–	–	–	–	–	binding result (TGFβ2 [19]): no binding; binding result (TGFβ1 [20]): no binding; binding result (TGFβ3 [21]): no binding
